# According to the Human Domainome abundance scans (Beltran et al. 2025):
# ± gives the uncertainty stated by the source.
# B1: SH3 and PX domain-containing protein 2B, residues 155 to 209; numbered along this chain, A1X283 (parent)
# chain: EQYVVVANYQKQESSEISLSVGQVVDIIEKNESGWWFVSTAEEQGWVPATCLEGQ
# Variants of: B1
# Assay: abundance fitness (aPCA) (normalised: wild type 0, dead -1); higher = more abundant; growth selection in yeast, the domain comes from the species named
# Settings: Homo sapiens
row,Variant,abundance fitness
1,EQYVVVANYQKQESSELSLSVGQVVDIIEKNESGWWFVSTAEEQGWVPATCLEGQ [I17L],-0.055 ± 0.084
2,EQYVVVANYQKQESSEMSLSVGQVVDIIEKNESGWWFVSTAEEQGWVPATCLEGQ [I17M],-0.053 ± 0.12
3,EQYVVVANYQKQESSENSLSVGQVVDIIEKNESGWWFVSTAEEQGWVPATCLEGQ [I17N],-0.733 ± 0.47
4,EQYVVVANYQKQESSEPSLSVGQVVDIIEKNESGWWFVSTAEEQGWVPATCLEGQ [I17P],-0.769 ± 0.17
5,EQYVVVANYQKQESSEQSLSVGQVVDIIEKNESGWWFVSTAEEQGWVPATCLEGQ [I17Q],-0.672 ± 0.19
6,EQYVVVANYQKQESSERSLSVGQVVDIIEKNESGWWFVSTAEEQGWVPATCLEGQ [I17R],-0.332 ± 0.061
7,EQYVVVANYQKQESSESSLSVGQVVDIIEKNESGWWFVSTAEEQGWVPATCLEGQ [I17S],-0.576 ± 0.18
8,EQYVVVANYQKQESSETSLSVGQVVDIIEKNESGWWFVSTAEEQGWVPATCLEGQ [I17T],-0.114 ± 0.12
9,EQYVVVANYQKQESSEVSLSVGQVVDIIEKNESGWWFVSTAEEQGWVPATCLEGQ [I17V],-0.048 ± 0.086
10,EQYVVVANYQKQESSEIFLSVGQVVDIIEKNESGWWFVSTAEEQGWVPATCLEGQ [S18F],-0.157 ± 0.42
11,EQYVVVANYQKQESSEIILSVGQVVDIIEKNESGWWFVSTAEEQGWVPATCLEGQ [S18I],-0.528 ± 0.24
12,EQYVVVANYQKQESSEIRLSVGQVVDIIEKNESGWWFVSTAEEQGWVPATCLEGQ [S18R],-0.646 ± 0.31
13,EQYVVVANYQKQESSEISASVGQVVDIIEKNESGWWFVSTAEEQGWVPATCLEGQ [L19A],-0.482 ± 0.1
14,EQYVVVANYQKQESSEISCSVGQVVDIIEKNESGWWFVSTAEEQGWVPATCLEGQ [L19C],-0.035 ± 0.13
15,EQYVVVANYQKQESSEISDSVGQVVDIIEKNESGWWFVSTAEEQGWVPATCLEGQ [L19D],-0.894 ± 0.28
16,EQYVVVANYQKQESSEISESVGQVVDIIEKNESGWWFVSTAEEQGWVPATCLEGQ [L19E],-0.768 ± 0.15
17,EQYVVVANYQKQESSEISFSVGQVVDIIEKNESGWWFVSTAEEQGWVPATCLEGQ [L19F],-0.441 ± 0.18
18,EQYVVVANYQKQESSEISGSVGQVVDIIEKNESGWWFVSTAEEQGWVPATCLEGQ [L19G],-0.838 ± 0.093
19,EQYVVVANYQKQESSEISISVGQVVDIIEKNESGWWFVSTAEEQGWVPATCLEGQ [L19I],-0.149 ± 0.17
20,EQYVVVANYQKQESSEISKSVGQVVDIIEKNESGWWFVSTAEEQGWVPATCLEGQ [L19K],-0.957 ± 0.14
21,EQYVVVANYQKQESSEISMSVGQVVDIIEKNESGWWFVSTAEEQGWVPATCLEGQ [L19M],-0.545 ± 0.15
22,EQYVVVANYQKQESSEISNSVGQVVDIIEKNESGWWFVSTAEEQGWVPATCLEGQ [L19N],-0.966 ± 0.16
23,EQYVVVANYQKQESSEISPSVGQVVDIIEKNESGWWFVSTAEEQGWVPATCLEGQ [L19P],-0.831 ± 0.11
24,EQYVVVANYQKQESSEISQSVGQVVDIIEKNESGWWFVSTAEEQGWVPATCLEGQ [L19Q],-0.865 ± 0.16

row,Variant,abundance fitness
1,EQYVVVANYQKQESSEISTSVGQVVDIIEKNESGWWFVSTAEEQGWVPATCLEGQ [L19T],-0.604 ± 0.089
2,EQYVVVANYQKQESSEISWSVGQVVDIIEKNESGWWFVSTAEEQGWVPATCLEGQ [L19W],-0.899 ± 0.11
3,EQYVVVANYQKQESSEISYSVGQVVDIIEKNESGWWFVSTAEEQGWVPATCLEGQ [L19Y],-0.665 ± 0.45
4,EQYVVVANYQKQESSEISLAVGQVVDIIEKNESGWWFVSTAEEQGWVPATCLEGQ [S20A],-0.13 ± 0.098
5,EQYVVVANYQKQESSEISLCVGQVVDIIEKNESGWWFVSTAEEQGWVPATCLEGQ [S20C],-0.209 ± 0.11
6,EQYVVVANYQKQESSEISLDVGQVVDIIEKNESGWWFVSTAEEQGWVPATCLEGQ [S20D],-0.317 ± 0.16
7,EQYVVVANYQKQESSEISLEVGQVVDIIEKNESGWWFVSTAEEQGWVPATCLEGQ [S20E],0.09 ± 0.21
8,EQYVVVANYQKQESSEISLFVGQVVDIIEKNESGWWFVSTAEEQGWVPATCLEGQ [S20F],-0.085 ± 0.1
9,EQYVVVANYQKQESSEISLGVGQVVDIIEKNESGWWFVSTAEEQGWVPATCLEGQ [S20G],-0.239 ± 0.079
10,EQYVVVANYQKQESSEISLHVGQVVDIIEKNESGWWFVSTAEEQGWVPATCLEGQ [S20H],-0.01 ± 0.13
11,EQYVVVANYQKQESSEISLKVGQVVDIIEKNESGWWFVSTAEEQGWVPATCLEGQ [S20K],-0.075 ± 0.11
12,EQYVVVANYQKQESSEISLLVGQVVDIIEKNESGWWFVSTAEEQGWVPATCLEGQ [S20L],0.015 ± 0.077
13,EQYVVVANYQKQESSEISLPVGQVVDIIEKNESGWWFVSTAEEQGWVPATCLEGQ [S20P],-0.536 ± 0.13
14,EQYVVVANYQKQESSEISLQVGQVVDIIEKNESGWWFVSTAEEQGWVPATCLEGQ [S20Q],-0.126 ± 0.17
15,EQYVVVANYQKQESSEISLRVGQVVDIIEKNESGWWFVSTAEEQGWVPATCLEGQ [S20R],-0.082 ± 0.074
16,EQYVVVANYQKQESSEISLTVGQVVDIIEKNESGWWFVSTAEEQGWVPATCLEGQ [S20T],-0.055 ± 0.11
17,EQYVVVANYQKQESSEISLVVGQVVDIIEKNESGWWFVSTAEEQGWVPATCLEGQ [S20V],-0.077 ± 0.079
18,EQYVVVANYQKQESSEISLWVGQVVDIIEKNESGWWFVSTAEEQGWVPATCLEGQ [S20W],-0.165 ± 0.12
19,EQYVVVANYQKQESSEISLYVGQVVDIIEKNESGWWFVSTAEEQGWVPATCLEGQ [S20Y],-0.143 ± 0.11
20,EQYVVVANYQKQESSEISLSAGQVVDIIEKNESGWWFVSTAEEQGWVPATCLEGQ [V21A],-0.043 ± 0.097
21,EQYVVVANYQKQESSEISLSCGQVVDIIEKNESGWWFVSTAEEQGWVPATCLEGQ [V21C],-0.025 ± 0.1
22,EQYVVVANYQKQESSEISLSDGQVVDIIEKNESGWWFVSTAEEQGWVPATCLEGQ [V21D],-0.593 ± 0.12
23,EQYVVVANYQKQESSEISLSEGQVVDIIEKNESGWWFVSTAEEQGWVPATCLEGQ [V21E],0.096 ± 0.1
24,EQYVVVANYQKQESSEISLSFGQVVDIIEKNESGWWFVSTAEEQGWVPATCLEGQ [V21F],-0.286 ± 0.099
